Test results: publication PMC6642148

Molecular target: RAS-binding domain (RBD) of RAF1, RAF1-RBD (52–131) (Homo sapiens) (UniProt P04049)
Experiment: ITC; GMPPNP-bound KRAS
Settings: domain or fragment

Kd: 217 nM
Substance: KRAS (2–169), GMPPNP-bound (from UniProt P01116-2 2-169)
